By Kd is commonly meant a measure of binding affinity in units of concentration. A low value points to higher affinity. For orientation: koff means a measure of how fast the partners let go of each other. Higher therefore signals fast dissociation.

Experimental findings from patent US20050266009A1 are described below.

In experiment [1] the target is T1, CCR5 (residues 1-18) derived peptide sulfated at 1st tyrosine position.
T1 sequence (peptide, sulfated at 1st tyrosine position): MDYQVSSPIYDINYYTSE
Put plainly: ELISA on coated peptide.

Experiment [2] concerns the target T2, CCR5 (residues 1-18) derived peptide sulfated at 2nd tyrosine position.
T2 sequence (peptide, sulfated at 2nd tyrosine position): MDYQVSSPIYDINYYTSE
Put plainly: ELISA on coated peptide. For orientation: ELISA stands for enzyme-linked immunosorbent assay.

The target in experiment [3] is T3, CCR5 (residues 1-18) derived peptide sulfated at 3rd tyrosine position.
T3 sequence (peptide, sulfated at 3rd tyrosine position): MDYQVSSPIYDINYYTSE
The experiment is described as follows: ELISA on coated peptide.

Experiment [4] deals with T4, GPIb (residues 268-285) derived peptide sulfated at 1st tyrosine position.
T4 sequence (peptide, sulfated at 1st tyrosine position): GDEGDTDLYDYYPEEDTE
Put plainly: ELISA on coated peptide.

Experiment [5] has as its target T5, GPIb (residues 268-285) derived peptide sulfated at 3rd tyrosine position.
T5 sequence (peptide, sulfated at 3rd tyrosine position): GDEGDTDLYDYYPEEDTE
Put plainly: ELISA on coated peptide.

Experiment [6] concerns the target T6, PSGL-1 (residues 42-58) derived peptide sulfated at 1st tyrosine position.
T6 sequence (peptide, sulfated at 1st tyrosine position): QATEYEYLDYDFLPETE
The experiment is described as follows: ELISA on coated peptide.

The target in experiment [7] is T7, PSGL-1 (residues 42-58) derived peptide sulfated at 2nd tyrosine position.
T7 sequence (peptide, sulfated at 2nd tyrosine position): QATEYEYLDYDFLPETE
Put plainly: ELISA on coated peptide.

In experiment [8] the target is T8, PSGL-1 (residues 42-58) derived peptide sulfated at 3rd tyrosine position.
T8 sequence (peptide, sulfated at 3rd tyrosine position): QATEYEYLDYDFLPETE
Put plainly: ELISA on coated peptide.

In experiment [9] the target is GPIb on guinea pig platelets (guinea pig). Put plainly: cell-based or functional assay.
Experiment [10] concerns the target T9, PSGL-1 (P-Selectin Glycoprotein Ligand-1) on cells (human) (UniProt Q14242).
T9 sequence (looked up): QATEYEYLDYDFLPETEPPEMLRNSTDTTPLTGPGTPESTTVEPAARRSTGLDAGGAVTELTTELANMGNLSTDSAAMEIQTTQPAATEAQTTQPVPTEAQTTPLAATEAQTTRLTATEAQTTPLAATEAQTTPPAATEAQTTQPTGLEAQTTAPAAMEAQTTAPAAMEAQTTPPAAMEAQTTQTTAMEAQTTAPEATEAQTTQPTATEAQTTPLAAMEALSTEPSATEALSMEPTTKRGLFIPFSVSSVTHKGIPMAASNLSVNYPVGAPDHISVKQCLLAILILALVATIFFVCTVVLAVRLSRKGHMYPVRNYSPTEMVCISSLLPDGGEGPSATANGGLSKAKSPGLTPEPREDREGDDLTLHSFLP
The experiment is described as follows: FACS on ML-2 cells in PBS, purified scFv.

The target in experiment [11] is T9, PSGL-1 (P-Selectin Glycoprotein Ligand-1) on cells (human). Put plainly: FACS on ML-2 cells in 50% plasma, purified scFv.
Experiment [12] has the same target. The experiment is described as follows: FACS, whole blood sample #1, monocytes, 1 µg scFv. Background: Flow cytometry measures light scatter and fluorescence of single cells or particles in a stream.
Experiment [13] has the same target. Put plainly: FACS, whole blood sample #2, monocytes, 1 µg scFv.
For experiment [14] the target is unchanged. The experiment is described as follows: FACS, whole blood sample #1, lymphocytes, 1 µg scFv.
The target is the same in experiment [15]. Put plainly: FACS, whole blood sample #1, monocytes, 0.1 µg scFv.
Experiment [16] has the same target. The experiment is described as follows: FACS, whole blood sample #1, monocytes, 0.5 µg scFv.
Experiment [17] has the same target. Put plainly: FACS, whole blood sample #2, lymphocytes, 1 µg scFv.
For experiment [18] the target is unchanged. The experiment is described as follows: FACS, whole blood sample #2, monocytes, 0.1 µg scFv.
Experiment [19] has the same target. Put plainly: FACS, whole blood sample #2, monocytes, 0.5 µg scFv.
For experiment [20] the target is unchanged. The experiment is described as follows: FACS, whole blood sample #1, granulocytes, 1 µg scFv.
For experiment [21] the target is unchanged. Put plainly: FACS, whole blood sample #2, granulocytes, 1 µg scFv.
The target is the same in experiment [22]. Put plainly: FACS, whole blood sample #1, lymphocytes, 0.1 µg scFv.
Experiment [23] shares this target. The experiment is described as follows: FACS, whole blood sample #1, lymphocytes, 0.5 µg scFv.
For experiment [24] the target is unchanged. Put plainly: FACS, whole blood sample #2, lymphocytes, 0.1 µg scFv.
The target is the same in experiment [25]. Put plainly: FACS, whole blood sample #2, lymphocytes, 0.5 µg scFv.
The target is the same in experiment [26]. The experiment is described as follows: FACS, whole blood sample #1, granulocytes, 0.1 µg scFv.
Experiment [27] has the same target. Put plainly: FACS, whole blood sample #1, granulocytes, 0.5 µg scFv.
The target is the same in experiment [28]. The experiment is described as follows: FACS, whole blood sample #2, granulocytes, 0.1 µg scFv.
Experiment [29] shares this target. The experiment is described as follows: FACS, whole blood sample #2, granulocytes, 0.5 µg scFv.
Experiment [30] deals with glycocalicin (UniProt P07359). Put plainly: SPR (BIAcore 3000), glycocalicin immobilized on CM5 chip. (Surface plasmon resonance follows binding to a sensor surface in real time, without labels.)
Experiment [31] concerns the target GPIb on human platelets (human) (UniProt P07359). The experiment is described as follows: FACS on platelets, PRP sample #1, 1 µg scFv; PRP sample #1, 1 µg scFv.
For experiment [32] the target is unchanged. The experiment is described as follows: FACS on platelets, PRP sample #1, 2 µg scFv; PRP sample #1, 2 µg scFv.
Experiment [33] has the same target. The experiment is described as follows: FACS on platelets, PRP sample #2, 1 µg scFv; PRP sample #2, 1 µg scFv.
Experiment [34] shares this target. Put plainly: FACS on platelets, PRP sample #2, 2 µg scFv; PRP sample #2, 2 µg scFv.
The target is the same in experiment [35]. The experiment is described as follows: FACS on platelets in PRP, 1 µg scFv; mean of PRP samples #1 and #2, 1 µg scFv.
Experiment [36] deals with T10, CCR5 (residues 1-18) derived peptide, non-sulfated.
T10 sequence (peptide): MDYQVSSPIYDINYYTSE
Put plainly: ELISA on coated peptide.

Experiment [37] has as its target T11, GPIb (residues 268-285) derived peptide, non-sulfated.
T11 sequence (peptide): GDEGDTDLYDYYPEEDTE
The experiment is described as follows: ELISA on coated peptide.

Experiment [38] deals with T12, PSGL-1 (residues 42-58) derived peptide, non-sulfated.
T12 sequence (peptide): QATEYEYLDYDFLPETE
Put plainly: ELISA on coated peptide.

The target of experiment [39] is GPIb on guinea pig platelets (guinea pig). Put plainly: FACS on guinea pig platelets.

GPIb on human platelets (human), sequence (P07359 17-652): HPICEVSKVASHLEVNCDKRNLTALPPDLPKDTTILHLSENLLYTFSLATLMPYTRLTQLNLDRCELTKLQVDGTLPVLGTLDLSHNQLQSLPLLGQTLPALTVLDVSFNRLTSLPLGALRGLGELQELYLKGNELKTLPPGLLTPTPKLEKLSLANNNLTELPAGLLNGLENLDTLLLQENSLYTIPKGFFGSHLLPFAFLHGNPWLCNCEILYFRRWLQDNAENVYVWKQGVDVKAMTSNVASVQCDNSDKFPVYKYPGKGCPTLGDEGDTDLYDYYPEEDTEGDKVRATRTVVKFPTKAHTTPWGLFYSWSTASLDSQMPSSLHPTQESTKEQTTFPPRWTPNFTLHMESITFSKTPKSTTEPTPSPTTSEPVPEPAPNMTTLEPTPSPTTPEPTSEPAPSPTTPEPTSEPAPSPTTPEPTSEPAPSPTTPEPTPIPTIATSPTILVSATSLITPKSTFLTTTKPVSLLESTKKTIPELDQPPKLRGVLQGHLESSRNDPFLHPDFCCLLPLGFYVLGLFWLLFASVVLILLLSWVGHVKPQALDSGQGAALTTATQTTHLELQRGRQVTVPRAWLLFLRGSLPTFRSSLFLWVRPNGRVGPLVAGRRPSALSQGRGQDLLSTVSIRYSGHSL
glycocalicin, sequence (P07359 17-531 limits assumed): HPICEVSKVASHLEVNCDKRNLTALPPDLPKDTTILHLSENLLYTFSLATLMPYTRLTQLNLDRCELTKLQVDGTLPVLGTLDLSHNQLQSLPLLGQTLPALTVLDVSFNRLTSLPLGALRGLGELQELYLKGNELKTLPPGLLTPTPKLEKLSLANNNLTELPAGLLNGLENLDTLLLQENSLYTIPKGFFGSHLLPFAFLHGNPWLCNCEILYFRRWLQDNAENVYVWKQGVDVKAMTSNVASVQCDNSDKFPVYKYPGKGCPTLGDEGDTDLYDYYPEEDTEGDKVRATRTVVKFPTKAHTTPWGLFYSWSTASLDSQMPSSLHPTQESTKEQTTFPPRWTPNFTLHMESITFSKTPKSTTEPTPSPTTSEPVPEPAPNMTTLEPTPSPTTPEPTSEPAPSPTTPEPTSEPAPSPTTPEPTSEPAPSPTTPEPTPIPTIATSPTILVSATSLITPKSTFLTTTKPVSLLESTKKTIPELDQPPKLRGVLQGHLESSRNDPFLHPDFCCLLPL

B1: S15 scFv (scFv)
scFv: EVQLVESGGGVVRPGGSLRLSCAASGFTFDLNPKVKHMWVRQAPGKGLEWVSGINWNGGSTGYADSVKGRFTISRDNAKNSLYLQMNSLRAEDTAVYYCARLRRPSIWGQGTLVTVSRGGGGSGGGGSGGGGSSELTQDPAVSVALGQTVRITCQGDSLRSYYASWYQQKPGQAPVLVIYGKNNRPSGIPDRFSGSSSGNTASLTITGAQAEDEADYYCNSRDSSGNHVVFGGGTKLTVLGAAAEQKLISEEDLNGAA
For the molecule B1, the ELISA reading at 450 nm in experiment [1] came to 0.12; in experiment [2], 0.3; in experiment [3] it was 0.16; in experiment [4], 0.6; in experiment [5], 0.3; in experiment [6] it was 0.02. Moreover, the ELISA reading at 450 nm in [7] stood at 0.2; in experiment [8] it was 0.6. Moreover, the inhibition of guinea pig platelet aggregation, IC50 in experiment [9] fell in the range of 80 to 160 µg/mL. The results for the fold binding compared to L32 and Y1 in experiment [10] and in experiment [11] were above 100 fold and above 10 fold, respectively. Moreover, the Geo Mean in [12] stood at 290; in experiment [13], 340; in [14], 120; in experiment [15], 56; in [16] it was 192; in [17], 112. For the same molecule, the Geo Mean came out at 69 in [18]; 248 in [19]; 150 in [20]; 220 in experiment [21]; 36 in experiment [22]; 81 in experiment [23]. The Geo Mean in experiment [24] stood at 18; in experiment [25], 78; in experiment [26], 26; in experiment [27], 100; in [28] it was 44; in experiment [29] it was 151. In addition, the Geo Mean in experiment [31] turned out to be 30; in experiment [32], 120; in experiment [33], 23; in [34], 68. Moreover, in [30], the Kd came to 180 nM. Besides, the koff in experiment [30] amounted to 0.43 s⁻¹. In [35], this molecule yielded an average geo mean of both PRP samples of 26.

B2: S11 scFv (scFv, from a related filing)
scFv: EVQLVESGGGVVRPGGSLRLSCAASGFTFDLNPKVKHMWVRQAPGKGLEWVSGINWNGGSTGYADSVKGRFTISRDNAKNSLYLQMNSLRAEDTAVYYCARLRYPFFWGQGTLVTVSRGGGGSGGGGSGGGGSSELTQDPAVSVALGQTVRITCQGDSLRSYYASWYQQKPGQAPVLVIYGKNNRPSGIPDRFSGSSSGNTASLTITGAQAEDEADYYCNSRDSSGNHVVFGGGTKLTVLGAAAEQKLISEEDLNGAA
For B2, the ELISA reading at 450 nm turned out to be 0.12 in experiment [1]; 0.7 in experiment [2]; 0.11 in [3]; 0.08 in [36]; 0.6 in experiment [4]; 0.3 in [5]. The ELISA reading at 450 nm in [37] was found to be 0.1; in experiment [6], 0.16; in [7], 0.12; in experiment [8] it was 0.7; in experiment [38], 0.01. In addition, the fold binding capacity relative to Y1 in [39] was determined as 25 fold.

B3: S1 scFv (scFv, from a related filing)
scFv: EVQLVESGGGVVRPGGSLRLSCAASGFTFDLNPKVKHMWVRQAPGKGLEWVSGINWNGGSTGYADSVKGRFTISRDNAKNSLYLQMNSLRAEDTAVYYCARLRPPFLWGQGTLVTVSRGGGGSGGGGSGGGGSSELTQDPAVSVALGQTVRITCQGDSLRSYYASWYQQKPGQAPVLVIYGKNNRPSGIPDRFSGSSSGNTASLTITGAQAEDEADYYCNSRDSSGNHVVFGGGTKLTVLGAAAEQKLISEEDLNGAA
For the molecule B3, the ELISA reading at 450 nm in experiment [1] stood at 0.07; in experiment [2], 0.3; in experiment [3] it was 0.07; in [36] it was 0.06; in experiment [4], 0.8; in experiment [5], 0.15. The ELISA reading at 450 nm was found to be 0.07 in experiment [37]; 0.1 in experiment [6]; 0.08 in experiment [7]; 0.8 in experiment [8]; 0.07 in experiment [38]. For the same molecule, the fold binding capacity relative to Y1 in experiment [39] stood at 25 fold.
